B1: Histone deacetylase 3 (Homo sapiens), O15379 (parent)
chain: MAKTVAYFYDPDVGNFHYGAGHPMKPHRLALTHSLVLHYGLYKKMIVFKPYQASQHDMCRFHSEDYIDFLQRVSPTNMQGFTKSLNAFNVGDDCPVFPGLFEFCSRYTGASLQGATQLNNKICDIAINWAGGLHHAKKFEASGFCYVNDIVIGILELLKYHPRVLYIDIDIHHGDGVQEAFYLTDRVMTVSFHKYGNYFFPGTGDMYEVGAESGRYYCLNVPLRDGIDDQSYKHLFQPVINQVVDFYQPTCIVLQCGADSLGCDRLGCFNLSIRGHGECVEYVKSFNIPLLVLGGGGYTVRNVARCWTYETSLLVEEAISEELPYSEYFEYFAPDFTLHPDVSTRIENQNSRQYLDQIRQTIFENLKMLNHAPSVQIHDVPADLLTYDRTDEADAEERGPEENYSRPEAPNEFYDGDHDNDKESDVEI

Variants of: B1
Conditions: with ncor2_human NCOR2, Q9Y618
ncor2_human NCOR2, Q9Y618, sequence (Q9Y618 whole entry): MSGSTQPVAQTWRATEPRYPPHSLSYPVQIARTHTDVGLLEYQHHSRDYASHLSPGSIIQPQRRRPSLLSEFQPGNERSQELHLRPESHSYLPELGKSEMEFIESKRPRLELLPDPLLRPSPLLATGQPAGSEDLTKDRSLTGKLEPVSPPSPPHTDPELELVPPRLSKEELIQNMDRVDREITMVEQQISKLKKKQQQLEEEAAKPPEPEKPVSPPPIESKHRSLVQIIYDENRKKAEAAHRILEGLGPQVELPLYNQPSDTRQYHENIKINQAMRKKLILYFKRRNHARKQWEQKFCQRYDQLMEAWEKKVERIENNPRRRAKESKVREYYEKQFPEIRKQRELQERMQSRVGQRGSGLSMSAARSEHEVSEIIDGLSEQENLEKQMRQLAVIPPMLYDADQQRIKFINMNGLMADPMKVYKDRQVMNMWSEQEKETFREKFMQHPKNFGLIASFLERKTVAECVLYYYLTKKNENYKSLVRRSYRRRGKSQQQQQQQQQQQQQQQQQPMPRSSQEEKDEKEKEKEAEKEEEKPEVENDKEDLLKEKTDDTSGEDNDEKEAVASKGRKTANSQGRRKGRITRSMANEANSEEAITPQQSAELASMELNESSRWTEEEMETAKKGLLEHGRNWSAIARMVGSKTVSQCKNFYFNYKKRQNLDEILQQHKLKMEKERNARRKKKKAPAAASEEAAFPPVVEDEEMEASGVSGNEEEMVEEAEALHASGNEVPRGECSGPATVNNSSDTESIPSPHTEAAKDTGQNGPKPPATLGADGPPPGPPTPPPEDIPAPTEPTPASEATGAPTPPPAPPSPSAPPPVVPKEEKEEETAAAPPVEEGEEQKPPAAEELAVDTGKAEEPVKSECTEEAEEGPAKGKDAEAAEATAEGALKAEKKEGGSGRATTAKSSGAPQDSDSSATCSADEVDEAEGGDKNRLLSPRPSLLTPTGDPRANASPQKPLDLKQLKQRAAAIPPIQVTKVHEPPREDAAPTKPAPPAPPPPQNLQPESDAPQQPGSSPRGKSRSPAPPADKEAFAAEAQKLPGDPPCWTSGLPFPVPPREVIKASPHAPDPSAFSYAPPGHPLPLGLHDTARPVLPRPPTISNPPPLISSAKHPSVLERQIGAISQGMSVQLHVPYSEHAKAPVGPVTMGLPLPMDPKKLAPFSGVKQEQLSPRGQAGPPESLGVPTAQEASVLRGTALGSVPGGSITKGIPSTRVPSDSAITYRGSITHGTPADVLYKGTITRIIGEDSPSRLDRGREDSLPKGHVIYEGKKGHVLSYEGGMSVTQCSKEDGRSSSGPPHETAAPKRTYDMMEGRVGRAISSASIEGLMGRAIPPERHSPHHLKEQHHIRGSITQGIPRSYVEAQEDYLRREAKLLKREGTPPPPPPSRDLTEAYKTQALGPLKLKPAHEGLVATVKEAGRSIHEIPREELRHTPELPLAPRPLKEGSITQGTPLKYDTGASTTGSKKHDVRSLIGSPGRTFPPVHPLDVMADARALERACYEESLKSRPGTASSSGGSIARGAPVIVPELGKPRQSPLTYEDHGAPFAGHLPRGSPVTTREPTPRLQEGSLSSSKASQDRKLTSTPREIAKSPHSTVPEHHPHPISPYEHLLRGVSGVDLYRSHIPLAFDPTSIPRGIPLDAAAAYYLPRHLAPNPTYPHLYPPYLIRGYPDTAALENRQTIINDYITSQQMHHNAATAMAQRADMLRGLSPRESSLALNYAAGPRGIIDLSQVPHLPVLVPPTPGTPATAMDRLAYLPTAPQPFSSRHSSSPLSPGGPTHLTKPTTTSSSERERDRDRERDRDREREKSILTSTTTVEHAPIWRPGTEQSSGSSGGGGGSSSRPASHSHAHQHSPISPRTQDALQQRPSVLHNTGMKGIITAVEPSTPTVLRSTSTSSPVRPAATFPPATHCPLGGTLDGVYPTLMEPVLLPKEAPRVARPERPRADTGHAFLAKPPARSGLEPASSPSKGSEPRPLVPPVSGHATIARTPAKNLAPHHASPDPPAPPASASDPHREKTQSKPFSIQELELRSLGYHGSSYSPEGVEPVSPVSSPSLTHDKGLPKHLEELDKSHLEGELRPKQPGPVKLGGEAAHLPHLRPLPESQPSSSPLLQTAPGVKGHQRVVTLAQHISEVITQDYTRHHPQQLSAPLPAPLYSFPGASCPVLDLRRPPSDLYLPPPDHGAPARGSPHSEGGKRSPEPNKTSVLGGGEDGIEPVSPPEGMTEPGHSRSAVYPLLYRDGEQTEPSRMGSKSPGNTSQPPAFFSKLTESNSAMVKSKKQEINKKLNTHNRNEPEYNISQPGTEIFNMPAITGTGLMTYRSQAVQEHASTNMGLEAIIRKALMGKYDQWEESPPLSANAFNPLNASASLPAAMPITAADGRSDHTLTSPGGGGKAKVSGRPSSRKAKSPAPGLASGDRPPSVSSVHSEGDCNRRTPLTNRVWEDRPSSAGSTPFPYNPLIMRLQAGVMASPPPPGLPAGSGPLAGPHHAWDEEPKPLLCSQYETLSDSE

| Variant | effect of a mutation on the interaction |
| --- | --- |
| H17C;G21A;K25I | disrupting interaction |
| R265P;L266M | disrupting interaction |

Continued, values first:

| effect of a mutation on the interaction | Variant |
| --- | --- |
| disrupting interaction | R265P |
| disrupting interaction | H17C;G21A;K25I;R265P;L266M |

Variants of: B1
Conditions: with ncor2_human NCOR2, Q9Y618
Remark: another data set of the same source

| effect of a mutation on the interaction | Variant |
| --- | --- |
| disrupting interaction | H17C;G21A;K25I;R265P;L266M |
